target: T1, human VLA4-Fc (alpha4-Fc/beta1-Fc heterodimer) (human); experiment: SPR (BIACORE), crude CHO-S supernatant on VLA4-Fc
T1 construct: Soluble heterodimer from CHO cells, Protein A purified; also called VLA-Fc
T1 sequence (chain, as listed by the source limits assumed, form in doubt, chain 1 of 2): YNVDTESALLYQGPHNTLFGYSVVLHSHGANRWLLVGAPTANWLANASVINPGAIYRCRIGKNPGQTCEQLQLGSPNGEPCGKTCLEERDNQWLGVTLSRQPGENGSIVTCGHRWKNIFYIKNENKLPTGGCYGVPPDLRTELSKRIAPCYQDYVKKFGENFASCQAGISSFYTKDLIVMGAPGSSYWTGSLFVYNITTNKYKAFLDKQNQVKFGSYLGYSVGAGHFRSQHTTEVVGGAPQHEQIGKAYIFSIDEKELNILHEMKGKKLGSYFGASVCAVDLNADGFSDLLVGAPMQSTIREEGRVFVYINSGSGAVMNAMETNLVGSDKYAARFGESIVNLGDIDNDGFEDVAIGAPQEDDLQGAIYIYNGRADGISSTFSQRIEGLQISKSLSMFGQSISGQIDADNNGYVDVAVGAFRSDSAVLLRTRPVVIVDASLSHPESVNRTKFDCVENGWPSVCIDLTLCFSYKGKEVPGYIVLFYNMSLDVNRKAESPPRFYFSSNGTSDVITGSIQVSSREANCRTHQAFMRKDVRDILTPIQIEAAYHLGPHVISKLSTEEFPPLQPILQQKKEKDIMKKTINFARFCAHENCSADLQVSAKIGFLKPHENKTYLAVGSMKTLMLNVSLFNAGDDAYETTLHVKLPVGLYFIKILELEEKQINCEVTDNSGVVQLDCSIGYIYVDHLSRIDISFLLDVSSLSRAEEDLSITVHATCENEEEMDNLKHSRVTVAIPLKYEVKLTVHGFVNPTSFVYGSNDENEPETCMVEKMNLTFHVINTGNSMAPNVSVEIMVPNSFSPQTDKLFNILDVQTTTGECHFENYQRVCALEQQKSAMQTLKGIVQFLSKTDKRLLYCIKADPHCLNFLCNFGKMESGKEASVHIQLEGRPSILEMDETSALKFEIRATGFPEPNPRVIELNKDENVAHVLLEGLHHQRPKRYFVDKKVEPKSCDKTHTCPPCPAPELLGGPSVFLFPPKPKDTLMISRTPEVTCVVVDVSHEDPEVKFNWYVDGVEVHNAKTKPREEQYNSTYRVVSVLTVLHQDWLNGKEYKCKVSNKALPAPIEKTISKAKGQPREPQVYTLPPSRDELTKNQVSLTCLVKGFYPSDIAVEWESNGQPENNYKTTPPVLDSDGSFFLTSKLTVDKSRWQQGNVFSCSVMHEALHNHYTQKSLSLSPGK
T1 sequence (chain, as listed by the source limits assumed, form in doubt, chain 2 of 2): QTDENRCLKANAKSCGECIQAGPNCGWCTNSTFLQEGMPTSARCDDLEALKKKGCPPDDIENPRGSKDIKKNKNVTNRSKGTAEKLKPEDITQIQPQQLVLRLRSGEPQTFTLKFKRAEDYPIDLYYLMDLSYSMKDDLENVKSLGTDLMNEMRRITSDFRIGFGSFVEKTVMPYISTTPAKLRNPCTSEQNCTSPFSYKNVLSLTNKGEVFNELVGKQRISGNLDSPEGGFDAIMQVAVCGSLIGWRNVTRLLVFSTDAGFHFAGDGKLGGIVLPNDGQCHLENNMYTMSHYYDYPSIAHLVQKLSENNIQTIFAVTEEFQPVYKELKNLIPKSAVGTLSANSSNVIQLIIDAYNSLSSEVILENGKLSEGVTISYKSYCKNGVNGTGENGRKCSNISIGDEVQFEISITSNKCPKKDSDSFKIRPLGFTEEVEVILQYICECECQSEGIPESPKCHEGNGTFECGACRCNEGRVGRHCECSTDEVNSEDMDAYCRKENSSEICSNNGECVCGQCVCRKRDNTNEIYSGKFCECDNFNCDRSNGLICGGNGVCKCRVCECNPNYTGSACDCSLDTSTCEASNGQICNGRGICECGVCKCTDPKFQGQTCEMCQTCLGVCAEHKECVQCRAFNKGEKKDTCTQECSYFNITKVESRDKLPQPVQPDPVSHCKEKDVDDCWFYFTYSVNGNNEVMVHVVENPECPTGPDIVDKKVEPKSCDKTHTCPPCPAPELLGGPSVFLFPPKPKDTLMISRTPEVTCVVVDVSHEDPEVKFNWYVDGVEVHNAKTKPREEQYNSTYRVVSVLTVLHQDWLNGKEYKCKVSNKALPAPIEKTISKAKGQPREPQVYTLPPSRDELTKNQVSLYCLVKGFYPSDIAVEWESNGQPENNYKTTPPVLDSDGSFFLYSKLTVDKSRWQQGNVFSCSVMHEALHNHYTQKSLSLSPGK

Row | Binder | fold weaker binding relative to 146R0 (KD(variant)/KD(146R0)) [fold]
1 | 146R0 (Clone 146 with three spacer-FLAG tags, CHO-S supernatant) (ligand, assayed as concentrated, filtered crude supernatant) FKIETTPESRYLAQIGDSVSLTCSTTGCESPLFFWRPLLDSPLNGKVTNEGTTSTLTMNPVSFGNEHSYLCTARCESRSLEKGIQVEIYSFPKDPEIHLSGPLEAGKPITVKCSVADVYPFDRLEIDLLKGDHLMKSQEFLEDADRKSLETKSLEVTFTPVIEDIGKVLVCRAKLHIDEMDSVPTVRQAVKELQVYISPGGGSDYKDDDDKGGGSDYKDDDDKGGGSDYKDDDDK | 1
2 | 146R7 (ligand, Crude CHO-S supernatant, 3x spacer-FLAG tagged) FKIETTPESRYLAQIGDSVSLTCSTTGCESPLFFWRPLLDSPLNGKVTNEGTTSTLTMNPVSFGNEHSYLCTARCESRKLEKGIQVEIYSFPKDPEIHLSGPLEAGKPITVKCSVADVYPFDRLEIDLLKGDHLMKSQEFLEDADRKSLETKSLEVTFTPVIEDIGKVLVCRAKLHIDEMDSVPTVRQAVKELQVYISPGGGSDYKDDDDKGGGSDYKDDDDKGGGSDYKDDDDKGS | 1
3 | 146R13 (ligand, Crude CHO-S supernatant, 3x spacer-FLAG tagged) FKIETTPESRYLAQIGDSVSLTCSTTGCESPFFFWRPLLDSPLNGKVTNEGTTSTLTMNPVSFGNEHSYLCTARCESRKLEKGIQVEIYSFPKDPEIHLSGPLEAGKPITVKCSVADVYPFDRLEIDLLKGDHLMKSQEFLEDADRKSLETKSLEVTFTPVIEDIGKVLVCRAKLHIDEMDSVPTVRQAVKELQVYISPGGGSDYKDDDDKGGGSDYKDDDDKGGGSDYKDDDDKGS | 2.3
4 | 146R19 (ligand, Crude CHO-S supernatant, 3x spacer-FLAG tagged) FKIETTPESRYLAQIGDSVSLTCSTTGCESPFFFWRPQIDSPLNGKVTNEGTTSTLTMNPVSFGNEHSYLCTARCESRKLEKGIQVEIYSFPKDPEIHLSGPLEAGKPITVKCSVADVYPFDRLEIDLLKGDHLMKSQEFLEDADRKSLETKSLEVTFTPVIEDIGKVLVCRAKLHIDEMDSVPTVRQAVKELQVYISPGGGSDYKDDDDKGGGSDYKDDDDKGGGSDYKDDDDKGS | 40
5 | 146R8 (ligand, Crude CHO-S supernatant, 3x spacer-FLAG tagged) FKIETTPESRYLAQIGDSVSLTCSTTGCESPLFFWRPLLDSPLNGKVTNEGTTSTLTMNPVSFGNEHSYLCTATCESRKLEKGIQVEIYSFPKDPEIHLSGPLEAGKPITVKCSVADVYPFDRLEIDLLKGDHLMKSQEFLEDADRKSLETKSLEVTFTPVIEDIGKVLVCRAKLHIDEMDSVPTVRQAVKELQVYISPGGGSDYKDDDDKGGGSDYKDDDDKGGGSDYKDDDDKGS | 1.7
6 | 146R10 (ligand, Crude CHO-S supernatant, 3x spacer-FLAG tagged) FKIETTPESRYLAQIGDSVSLTCSTTGCESPFFFWRPLLDSPLNGKVTNEGTTSTLTMNPVSFGNEHSYLCTATCESRKLEKGIQVEIYSFPKDPEIHLSGPLEAGKPITVKCSVADVYPFDRLEIDLLKGDHLMKSQEFLEDADRKSLETKSLEVTFTPVIEDIGKVLVCRAKLHIDEMDSVPTVRQAVKELQVYISPGGGSDYKDDDDKGGGSDYKDDDDKGGGSDYKDDDDKGS | 2.7
7 | 146R4 (ligand, Crude CHO-S supernatant, 3x spacer-FLAG tagged) FKIETTPESRYLAQIGDSVSLTCSTTGCESPLFFWRPQLDSPLNGKVTNEGTTSTLTMNPVSFGNEHSYLCTARCESRSLEKGIQVEIYSFPKDPEIHLSGPLEAGKPITVKCSVADVYPFDRLEIDLLKGDHLMKSQEFLEDADRKSLETKSLEVTFTPVIEDIGKVLVCRAKLHIDEMDSVPTVRQAVKELQVYISPGGGSDYKDDDDKGGGSDYKDDDDKGGGSDYKDDDDKGS | 2.6
8 | 146R12 (ligand, Crude CHO-S supernatant, 3x spacer-FLAG tagged) FKIETTPESRYLAQIGDSVSLTCSTTGCESPFFSWRPLLDSPLNGKVTNEGTTSTLTMNPVSFGNEHSYLCTATCESRKLEKGIQVEIYSFPKDPEIHLSGPLEAGKPITVKCSVADVYPFDRLEIDLLKGDHLMKSQEFLEDADRKSLETKSLEVTFTPVIEDIGKVLVCRAKLHIDEMDSVPTVRQAVKELQVYISPGGGSDYKDDDDKGGGSDYKDDDDKGGGSDYKDDDDKGS | 21.7
9 | 146R6 (ligand, Crude CHO-S supernatant, 3x spacer-FLAG tagged) FKIETTPESRYLAQIGDSVSLTCSTTGCESPLFFWRPLLDSPLNGKVTNEGTTSTLTMNPVSFGNEHSYLCTATCESRSLEKGIQVEIYSFPKDPEIHLSGPLEAGKPITVKCSVADVYPFDRLEIDLLKGDHLMKSQEFLEDADRKSLETKSLEVTFTPVIEDIGKVLVCRAKLHIDEMDSVPTVRQAVKELQVYISPGGGSDYKDDDDKGGGSDYKDDDDKGGGSDYKDDDDKGS | 1.8
10 | 146R18 (ligand, Crude CHO-S supernatant, 3x spacer-FLAG tagged) FKIETTPESRYLAQIGDSVSLTCSTTGCESPFFFWRPLIDSPLNGKVTNEGTTSTLTMNPVSFGNEHSYLCTATCESRKLEKGIQVEIYSFPKDPEIHLSGPLEAGKPITVKCSVADVYPFDRLEIDLLKGDHLMKSQEFLEDADRKSLETKSLEVTFTPVIEDIGKVLVCRAKLHIDEMDSVPTVRQAVKELQVYISPGGGSDYKDDDDKGGGSDYKDDDDKGGGSDYKDDDDKGS | 6.3
11 | 146R9 (ligand, Crude CHO-S supernatant, 3x spacer-FLAG tagged) FKIETTPESRYLAQIGDSVSLTCSTTGCESPFFFWRPQLDSPLNGKVTNEGTTSTLTMNPVSFGNEHSYLCTARCESRSLEKGIQVEIYSFPKDPEIHLSGPLEAGKPITVKCSVADVYPFDRLEIDLLKGDHLMKSQEFLEDADRKSLETKSLEVTFTPVIEDIGKVLVCRAKLHIDEMDSVPTVRQAVKELQVYISPGGGSDYKDDDDKGGGSDYKDDDDKGGGSDYKDDDDKGS | 2
12 | 146R11 (ligand, Crude CHO-S supernatant, 3x spacer-FLAG tagged) FKIETTPESRYLAQIGDSVSLTCSTTGCESPLFFWRPQLDSPLNGKVTNEGTTSTLTMNPVSFGNEHSYLCTATCESRKLEKGIQVEIYSFPKDPEIHLSGPLEAGKPITVKCSVADVYPFDRLEIDLLKGDHLMKSQEFLEDADRKSLETKSLEVTFTPVIEDIGKVLVCRAKLHIDEMDSVPTVRQAVKELQVYISPGGGSDYKDDDDKGGGSDYKDDDDKGGGSDYKDDDDKGS | 25.9
13 | 146R14 (ligand, Crude CHO-S supernatant, 3x spacer-FLAG tagged) FKIETTPESRYLAQIGDSVSLTCSTTGCESPLFFWRPLIDSPLNGKVTNEGTTSTLTMNPVSFGNEHSYLCTARCESRKLEKGIQVEIYSFPKDPEIHLSGPLEAGKPITVKCSVADVYPFDRLEIDLLKGDHLMKSQEFLEDADRKSLETKSLEVTFTPVIEDIGKVLVCRAKLHIDEMDSVPTVRQAVKELQVYISPGGGSDYKDDDDKGGGSDYKDDDDKGGGSDYKDDDDKGS | 1.5
14 | 146R5 (ligand, Crude CHO-S supernatant, 3x spacer-FLAG tagged) FKIETTPESRYLAQIGDSVSLTCSTTGCESPLFFWRPLIDSPLNGKVTNEGTTSTLTMNPVSFGNEHSYLCTARCESRSLEKGIQVEIYSFPKDPEIHLSGPLEAGKPITVKCSVADVYPFDRLEIDLLKGDHLMKSQEFLEDADRKSLETKSLEVTFTPVIEDIGKVLVCRAKLHIDEMDSVPTVRQAVKELQVYISPGGGSDYKDDDDKGGGSDYKDDDDKGGGSDYKDDDDKGS | 1.2
15 | 146R15 (ligand, Crude CHO-S supernatant, 3x spacer-FLAG tagged) FKIETTPESRYLAQIGDSVSLTCSTTGCESPFFFWRPQLDSPLNGKVTNEGTTSTLTMNPVSFGNEHSYLCTARCESRKLEKGIQVEIYSFPKDPEIHLSGPLEAGKPITVKCSVADVYPFDRLEIDLLKGDHLMKSQEFLEDADRKSLETKSLEVTFTPVIEDIGKVLVCRAKLHIDEMDSVPTVRQAVKELQVYISPGGGSDYKDDDDKGGGSDYKDDDDKGGGSDYKDDDDKGS | 5.3
16 | 146R16 (ligand, Crude CHO-S supernatant, 3x spacer-FLAG tagged; The cell prints N: 131) FKIETTPESRYLAQIGDSVSLTCSTTGCESPFFFWRPLIDSPLNGKVTNEGTTSTLTMNPVSFGNEHSYLCTARCESRSLEKGIQVEIYSFPKDPEIHLSGPLEAGKPITVKCSVADVYPFDRLEIDLLKGDHLMKSQEFLEDADRKSLETKSLEVTFTPVIEDIGKVLVCRAKLHIDEMDSVPTVRQAVKELQVYISPGGGSDYKDDDDKGGGSDYKDDDDKGGGSDYKDDDDKGS | 1.1
17 | 146R3 (ligand, Crude CHO-S supernatant, 3x spacer-FLAG tagged) FKIETTPESRYLAQIGDSVSLTCSTTGCESPLFFWRTLLDSPLNGKVTNEGTTSTLTMNPVSFGNEHSYLCTARCESRSLEKGIQVEIYSFPKDPEIHLSGPLEAGKPITVKCSVADVYPFDRLEIDLLKGDHLMKSQEFLEDADRKSLETKSLEVTFTPVIEDIGKVLVCRAKLHIDEMDSVPTVRQAVKELQVYISPGGGSDYKDDDDKGGGSDYKDDDDKGGGSDYKDDDDKGS | 1.3
18 | 146R17 (ligand, Crude CHO-S supernatant, 3x spacer-FLAG tagged) FKIETTPESRYLAQIGDSVSLTCSTTGCESPFFFWRPLIDSPLNGKVTNEGTTSTLTMNPVSFGNEHSYLCTARCESRKLEKGIQVEIYSFPKDPEIHLSGPLEAGKPITVKCSVADVYPFDRLEIDLLKGDHLMKSQEFLEDADRKSLETKSLEVTFTPVIEDIGKVLVCRAKLHIDEMDSVPTVRQAVKELQVYISPGGGSDYKDDDDKGGGSDYKDDDDKGGGSDYKDDDDKGS | 2.8
19 | 146R2 (ligand, Crude CHO-S supernatant, 3x spacer-FLAG tagged) FKIETTPESRYLAQIGDSVSLTCSTTGCESPLFSWRPLLDSPLNGKVTNEGTTSTLTMNPVSFGNEHSYLCTARCESRSLEKGIQVEIYSFPKDPEIHLSGPLEAGKPITVKCSVADVYPFDRLEIDLLKGDHLMKSQEFLEDADRKSLETKSLEVTFTPVIEDIGKVLVCRAKLHIDEMDSVPTVRQAVKELQVYISPGGGSDYKDDDDKGGGSDYKDDDDKGGGSDYKDDDDKGS | 2.7
20 | 146R1 (ligand, Crude CHO-S supernatant, 3x spacer-FLAG tagged) FKIETTPESRYLAQIGDSVSLTCSTTGCESPFFFWRPLLDSPLNGKVTNEGTTSTLTMNPVSFGNEHSYLCTARCESRSLEKGIQVEIYSFPKDPEIHLSGPLEAGKPITVKCSVADVYPFDRLEIDLLKGDHLMKSQEFLEDADRKSLETKSLEVTFTPVIEDIGKVLVCRAKLHIDEMDSVPTVRQAVKELQVYISPGGGSDYKDDDDKGGGSDYKDDDDKGGGSDYKDDDDKGS | 1.1

Source: patent publication US20120135912A1 (PERSEID THERAPEUTICS, published 2012)
